Data from PMC11804868.

How the values were obtained:
[1] = molecular target: DEBSIII TE wild type (thioesterase domain of the erythromycin polyketide synthase DEBSIII) (Saccharopolyspora erythrea); test: SEC
[2] = molecular target: TylG5 TE wild type (thioesterase domain of the tylosin polyketide synthase TylG5) (Streptomyces fradiae); test: SEC

Substance “DEBSIII TE wild type (thioesterase domain of the erythromycin polyketide synthase DEBSIII) (domain or fragment)” has a stoichiometry N [1] of 2.

With “TylG5 TE wild type (thioesterase domain of the tylosin polyketide synthase TylG5) (domain or fragment)” the stoichiometry N [2] was 2.
